B1: Histone H1t, residues 44 to 112; numbered along this chain, P22492 (parent)
chain: VSKLITEALSVSQERVGMSLVALKKALAAAGYDVEKNNSRIKLSLKSLVNKGILVQTRGTGASGSFKLS

Variants of: B1
Test: abundance fitness (aPCA) (normalised: wild type 0, dead -1); higher = more abundant; growth selection in yeast, the domain comes from the species named
Settings: Homo sapiens

Abundance fitness, by site and new letter:
S69: D -0.192, C -0.246, N -0.055, E 0.119, V -0.093, L -0.128, I -0.156
F66: V -0.078, M -0.173, I -0.246, P -0.112, T -0.129, R -0.084, D 0.053, A 0.008, G -0.127, L -0.097, H -0.289, N -0.119, Y -0.046, S -0.108, Q -0.072, W -0.064, K -0.042, E -0.03
V55: F -0.114, N -0.102, S 0.071, A -0.106, H -0.08, Q -0.127, E 0.027, W -0.297, L -0.056, M 0.002, D -0.291, C -0.077, Y -0.15, T 0.062, P -0.163, I -0.079, G 0.056
T57: K -0.011, S -0.039, W -0.252, G -0.102, M -0.048, I -0.147, V -0.052, L -0.026, R -0.036, Q -0.013, H -0.001, P -0.061, C -0.019, E 0.117, F -0.14, Y -0.133, A 0.024, N -0.058
G59: A -0.148, K 0.001, I 0.119, N -0.186, L -0.049, R -0.146, M -0.152, Q -0.079, C -0.015, D 0.025, S -0.113, H -0.13, F -0.074, P -0.138, E -0.086, V -0.09, Y -0.222
Q56: T 0.047, G 0.005, K 0.083, R -0.031, A 0.212, E 0.127, P -0.026
L68: S -0.115, E -0.099, H -0.369, M -0.082, W -0.121, F -0.1, I -0.223, Q -0.327, Y -0.185, T -0.067, D -0.147, A -0.176, K -0.064, N -0.149, G -0.049, R -0.138, C -0.202
K67: Q -0.092, T -0.193, C -0.096, M -0.066, R -0.035, I -0.192, S 0.024, W -0.246, Y -0.181, V -0.109, F 0.06, L -0.158, D -0.174, N -0.091, H -0.148, P -0.202, A -0.028
G52: S -0.129, N -0.201, I -0.352, K -0.123, L -0.212, W -0.457, D -0.08, Y -0.425, H -0.283, T -0.15, P -0.39, R -0.434, F -0.184, Q -0.3, C -0.01, M -0.199
L54: Y -0.311, Q 0.092, R 0.168, S -0.047, I 0.197, T -0.246, N -0.249, M 0.062, K -0.087, V 0.158, F -0.036, H -0.325, P -0.083, A -0.3
G61: D 0.082, S -0.07, V -0.185, H -0.006, P -0.144, A -0.103, N 0.055, L -0.182, E -0.032, I -0.171, W -0.176, F -0.16, Q -0.081, T -0.044, M -0.213, R -0.188, K 0.023, C -0.018, Y -0.218

Reference: the Human Domainome abundance scans (Beltran et al. 2025)
